According to publication PMC9751088, “Structure of the Acidobacteria homodimeric reaction center bound with cytochrome c” (Nature Communications, 2022):
Values belong to the molecule of their own block, whether it stands above or below them.

Columns and labels:
[1] = molecular target: T1, CabRC core (PscA homodimer) in the CabRC complex (Chloracidobacterium thermophilum, UniProt G2LDR8); assay: cryo-EM structure ([…] Å CabRCS; […] Å CabRCL); HPLC of pigments; type: binding; conditions: one transmembrane molecule in each PscA
T1 construct: gene Cabther_A2188; native complex from C. thermophilum membranes, Triton X-100, untagged; PscA homodimer with 11 TMHs each, insertion N440-H644; smaller form CabRCS without and larger form CabRCL with PscB and PscZ; with c-type cytochrome PscX; c-type cytochrome PscY; Reaction center subunit PscU; Reaction center subunit PscV; Reaction center subunit PscW

[2] = molecular target: PscA (Chloracidobacterium thermophilum); assay: cryo-EM structure; CabRCS (smaller form, ten subunits), native complex purified from C. thermophilum membranes in Triton X-100; 2.22 Å; 20 mM Tris-HCl pH 7.6, 10 mM ascorbic acid, 0.03% Triton X-100
PscB = molecular target: T2, PscB (Chloracidobacterium thermophilum, UniProt G2LDR7 1-179); assay: cryo-EM structure; CabRCL (larger form with PscB and PscZ), native complex purified from C. thermophilum membranes in Triton X-100; 2.61 Å global, cytoplasmic region ~3.5 to ~5.0 Å; 20 mM Tris-HCl pH 7.6, 10 mM ascorbic acid, 0.03% Triton X-100; conditions: both partners purified
T2 construct: Only in the larger form CabRCL; also called PscB/CabRC
T2 sequence (looked up): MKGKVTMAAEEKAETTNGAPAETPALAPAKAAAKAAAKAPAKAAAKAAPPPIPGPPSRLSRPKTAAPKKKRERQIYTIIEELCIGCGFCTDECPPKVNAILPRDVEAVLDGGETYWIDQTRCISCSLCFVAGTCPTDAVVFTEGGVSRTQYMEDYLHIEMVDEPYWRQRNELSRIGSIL

Molecule: CC(C)=CCC/C(C)=C/C=C/C(C)=C/C=C/C(C)=C/C=C/C=C(C)/C=C/C=C(C)/C=C/C=C(\C)CCC=C(C)C [lycopene]
- cryo-EM structure (2.22 Å CabRCS; 2.61 Å CabRCL); HPLC of pigments [1]: we identified one transmembrane lycopene molecule in each PscA

- stoichiometry N [2]: 2
Molecule: PscA (natural protein)

- binding result (PscB): binds
B1: PscZ (natural protein, Chloracidobacterium thermophilum, UniProt G2LHG2 1-60, looked up)
chain: MARTPEEIVKRYKEANIWLRHWKQQIGLAKDEEQREMFTQYYEERVQEIAALEEPYRAAL
notes: Only in the larger form CabRCL
